{
  "source": "paper PMC3584020",
  "binders": {"B1": {"name": "GAL4 AD-fused C. elegans ELC (wELC) L47D; L49D; Y88D; Y91D (protein)", "chain": "MADQNNAIQCDQDAAQPKQYGGIEGPTSQYVKLVSSDDHEFIIKREDADTSGTIRAMLSGPGVYAENESNVVYFREIPSHVLQKVCQDFADKVRYTHAATEIPEFPIPPDVALELLMAANFLDC"}},
  "target": "LexA-PRAME, P78395",
  "sequence (P78395 whole entry)": "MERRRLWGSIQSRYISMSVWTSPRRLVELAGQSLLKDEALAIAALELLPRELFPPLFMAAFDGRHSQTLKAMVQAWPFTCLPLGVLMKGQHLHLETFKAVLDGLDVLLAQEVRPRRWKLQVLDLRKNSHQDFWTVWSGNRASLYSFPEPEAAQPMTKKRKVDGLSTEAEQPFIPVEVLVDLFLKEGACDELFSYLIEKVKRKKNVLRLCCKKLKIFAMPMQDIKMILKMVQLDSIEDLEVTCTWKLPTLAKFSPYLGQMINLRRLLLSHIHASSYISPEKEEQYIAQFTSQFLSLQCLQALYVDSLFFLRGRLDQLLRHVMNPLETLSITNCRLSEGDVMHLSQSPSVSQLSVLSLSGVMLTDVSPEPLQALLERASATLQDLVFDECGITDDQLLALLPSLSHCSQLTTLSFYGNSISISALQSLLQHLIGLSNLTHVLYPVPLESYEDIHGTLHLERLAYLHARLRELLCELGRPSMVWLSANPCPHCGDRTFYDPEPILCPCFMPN",
  "assay": "yeast two hybrid",
  "settings": "chain shown with the change; LexA-PRAME (1-509); β-galactosidase activity normalised to amount of protein in the extracts; parent: est. 160; read off a plot",
  "data": [
    {"binder": "B1", "values": [
      {"measurement": "response (Units β-Galactosidase)", "result": 5}
    ]}
  ]
}
